Measured values reported in patent US8673594B2, “Methods for stimulating nervous system regeneration and repair by regulating arginase I and polyamine synthesis” (Research Foundation of City University of New York, priority 2000, dated 2014).

Columns and labels:
[1] = test system: Arg I RNA in cerebellar neurons; assay: Arginase I RNA level in cerebellar neurons by RT-PCR and quantitative PCR; format: cell-based; conditions: overnight dbcAMP 1 mM or BDNF 200 ng/ml; P<0.005
Procedure: FIG. 4: Priming Neurons With Brain Derived Neurotrophic Factor (BDNF) or Dibutyryl (db) cAMP Up-Regulates Arginase I RNA Levels In Cerebellar Neurons. RNA isolated from cerebellar neurons without treatment (lane 2), from cerebellar neurons exposed overnight to either BDNF (200 ng/ml) (lane 3) or dbcAMP (1 mM) (lane 4), was reverse, transcribed and subjected to (A) semi-quantitative PCR; or (B) quantitative PM; using primers specific for arginase I. As a positive control, RNA isolated from liver tissue was subjected to RT PCR and quantitative PCR procedures using the same primers ((A), lane 1; (B), “Liver”)
To determine whether elevated cAMP levels causes an up-regulation of arginase expression, cerebellar neurons were primed with neurotrophins (BDNF) or dbcAMP (Example 1), and RNA and protein was extracted from primed neurons (Example 2). The extracted RNA was used as a template for reverse transcription and PCR amplification using primers specific for the gene encoding the enzyme arginase I (“Arg I”), an isoform of arginase abundant in liver tissue but barely detectable in other tissues.
Cerebellar neurons were primed with neurotrophins (BDNF, GDNF) or dbcAMP according to the procedures in Example 1. […]
Finally, ArgI amplified cDNA samples were detected by electrophoretic separation on a 1% agarose gel and staining with ethidium bromide.

[2] = test system: ArgI protein in cerebellar neurons; assay: Arginase I protein level in cerebellar neurons by SDS-PAGE and Western blot; format: cell-based; conditions: for increase in amount of ArgI protein: after 1 hour of exposure; for increase in amount of ArgI protein / time of peak of ArgI protein increase post-treatment / time for which ArgI protein increase was sustained: dbcAMP 1 mM or BDNF 200 ng/ml; for time for which ArgI protein increase was sustained: declining by 24 hours
Procedure: Cerebellar neurons were untreated (−) or exposed to either (A) 200 ng/ml BDNF or (B) 1 mM dbcAMP for 1 hour (h), 3 h, 21 h or 24 h; or (C) 200 ng/ml GDNF (+) for 1 h, 3 h or 5 h and the cells lysed in the presence of protease inhibitors. Total protein (23 μg) was subjected to SDS-polyacrylamide gel (12%) electrophoresis (SDS-PAGE), transferred to nitrocellulose membrane and immunostained with antibody to Arg I. The arrows indicate the position of ArgI polypeptide.
We next assessed the expression of ArgI in cerebellar neurons at the protein level. After exposure of cerebellar neurons to either dbcAMP or BDNF for various times, neurons were lysed, proteins were extracted and the extracted proteins were separated by SDS PAGE before being transferred to membrane and immunostained with a polyclonal antibody against arginase I (see Example 2).
Cerebellar neurons were untreated (−) or exposed to 200 ng/ml GDNF for 1 h, 3 h or 5 h and the cells lysed in the presence of protease inhibitors. Total protein (23 μg) was subjected to SDS-polyacrylamide gel (12%) electrophoresis (SDS-PAGE), transferred to nitrocellulose membrane and immunostained with antibody to Arg I. As shown in FIG. 5(C), the amount of ArgI polypeptide increased at least two-fold after treatment of neurons with GDNF.
Neurons were lysed, proteins were extracted and the extracted proteins (23 μg of total protein per lane) separated by SDS-polyacrylamide gel (12%) electrophoresis (SDS-PAGE) according to well-known procedures (see Ausubel et al., supra). Separated proteins were transferred to nitrocellulose membrane and immunostained with antibody to Arg I. The results are shown in FIG. 5, where the arrows indicate the position of ArgI polypeptide. Polyclonal antibodies were generated against the recombinant arginase of Cavalli at al., Biochemistry, 33, pp. 10652-657 (1994), which described the recombinant expression and purification of rat liver arginase I in E. coli. Polyclonal antibodies were generated essentially according to the procedures of Hanly et al., ILAR Journal, 37, pp. 141-152 (1995), incorporated herein by reference.
For the measurement of arginase I protein levels by immunoblot, cells were harvested and washed with ice cold PBS and then resuspended (100 μl/10^7 cells) in ice cold extraction buffer containing 50 mM Tris-HCl, pH 7.4, 150 mM NaCl, 2 mM EDTA, Triton-X 100, 1 mM phenylmethylsulfonyl fluoride (PMSF), 10 micrograms/ml leupeptin, 1 micromolar pepstatin, 1 mM N-ethylmaleimide (NEM), 2 mM Na3VO4, 20 mM sodium pyrophosphate, and 50 mM NaP). Lysates were centrifuged at 15,000 RPM at 4 degrees centigrade for 30 minutes. The clear cytosol was separated from the insoluble pellet fraction and immediately used for immunoblot. The supernatants were removed carefully and the protein concentration was quantified by the Bradford method. Lysates were mixed with boiling Laemmli's buffer (1× is 100 mM Tris-HCl, pH 6.8, 4% SDS, 200 mM dithiothreitol, 20% glycerol, 2% SDS, 0.2% bromophenol blue, 10 micrograms/ml aprotinin, 10 micrograms/ml leupeptin). The samples were boiled for 10 minutes at 100° C. and centrifuged at 15,000 rpm for 10 seconds. Approximately 30 micrograms of protein was electrophoresed under reducing conditions on 10% SDS-polyacrylamide gels and transferred to nitrocellulose membrane. Membranes were blocked in 5% skim milk in TBST (Tris, pH 7.4; 150 mM NaCl; 0.05% Tween 20) for 30 minutes at room temperature. Blots were probed with primary antibodies overnight at 4° C., followed by incubation with anti-rabbit or anti-mouse IgG conjugated with horseradish peroxidase (Bio-Rad, Hercules, Calif.) for 1 hour. Signals were detected using the ECL system (Amersham Corp, Arlington, Heights, Ill.).

Row | Molecule | increase in amount of Arg I RNA by quantitative PCR [1] | increase in amount of ArgI protein [2] | time of peak of ArgI protein increase post-treatment [2] | time for which ArgI protein increase was sustained [2] [h] | increase in amount of ArgI polypeptide ([2]; 200 ng/ml GDNF for 1 h, 3 h or 5 h)
1 | CCCC(=O)Nc1ncnc2c1ncn2[C@@H]1O[C@@H]2COP(=O)(O)O[C@H]2[C@H]1OC(=O)CCC [dbcAMP, dibutyryl cAMP] | about 50% | at least two-fold | around 3 hours | 21 | –
2 | BDNF: Brain-derived neurotrophic factor, Trk-family neurotrophin (protein, UniProt P23560 19-247, looked up) Neurotrophic factor BDNF …: APMKEANIRGQGGLAYPGVRTHGTLESVNGPKAGSRGLTSLADTFEHVIEELLDEDQKVRPNEENNKDADLYTSRVMLSSQVPLEPPLLFLLEEYKNYLDAANMSMRVRRHSDPARRGELSVCDSISEWVTAADKKTAVDMSGGTVTVLEKVPVSKGQLKQYFYETKCNPMGYTKEGCRGIDKRHWNSQCRTTQSYVRALTMDSKKRIGWRFIRIDTSCVCTLTIKRGR | about 50% | at least two-fold | around 3 hours | 21 | –
3 | GDNF: glial cell line-derived neurotrophic factor (protein, UniProt P39905 78-211, looked up) Glial cell line-derived …: SPDKQMAVLPRRERNRQAAAANPENSRGKGRRGQRGKNRGCVLTAIHLNVTDLGLGYETKEELIFRYCSGSCDAAETTYDKILKNLSRNRRLVSDKVGQACCRPIAFDDDLSFLDDNLVYHILRKHSAKRCGCI | – | – | – | – | at least two-fold
